The labels stand for the following.
B1: HDV Ribozyme (parent)
chain: GGCCGGCAUGGUCCCAGCCUCCUCGCUGGCGCCGGCUGGGCAACAUUCCGAGGGGACCGUCCCCUCGGUAAUGGCGAAUGGGACCCA

The data set covers variants of B1. The data set can be described thus: self-cleavage, relative activity (ratio to wild type); higher = more cleavage; co-transcriptional.
As for GGGCGGCAUGGUCCCAGCCUCCUCGCUGGCGCCGGCUGGGCAACAUUCCGGGGGGACCGUCCCCUCGGUAAUGGCGAAUGGGACCCA [C3G A51G], the self-cleavage was 0.746.

Turning to GGACGGCAUGGUCCCAGCCUCCUCGCUGGCGCCGGCUGGGCAACAUUCCGAGGGGACCGUCCCCUCGGUAACGGCGAAUGGGACCCA [C3A U72C], the self-cleavage is 0.198.

Regarding GGACGGCAUGGUCCCAGCCUCCUCGCUGGCGCCGGCUGGGCAACAUUCCGAGGGGACCGUCCCCUCGGUAAGGGCGAAUGGGACCCA [C3A U72G], the self-cleavage was 0.0712.

Turning to GGGCGGCAUGGUCCCAGCCUCCUCGCUGGCGCCGGCUGGGCAACAUUCCGAGGGGACCGUCCCCUCGGUAUUGGCGAAUGGGACCCA [C3G A71U], the self-cleavage came to 0.502.

Take GGGCGGCAUGGUCCCAGCCUCCUCGCUGGCGCCGGCUGGGCAACAUUCCGAGGGGACCGUCCCCUCGGUAGUGGCGAAUGGGACCCA [C3G A71G]: the self-cleavage was 0.631.

In the case of GGGCGGCAUGGUCCCAGCCUCCUCGCUGGCGCCGGCUGGGCAACAUUCCGAGGGGACCGUCCCCUCGGUAAUGGCGAAUGGGUCCCA [C3G A83U], the self-cleavage is 0.0678.

Consider GGACGGCAUGGUCCCAGCCUCCGCGCUGGCGCCGGCUGGGCAACAUUCCGAGGGGACCGUCCCCUCGGUAAUGGCGAAUGGGACCCA [C3A U23G], for which the self-cleavage came to 0.352.

GGGCGGCAUGGUUCCAGCCUCCUCGCUGGCGCCGGCUGGGCAACAUUCCGAGGGGACCGUCCCCUCGGUAAUGGCGAAUGGGACCCA [C3G C13U]: the self-cleavage stood at 0.229.

Take GGACGGCAUGGUCCCAGCCUCCUCGCUGGCGCCGGCUGGGCAACAAUCCGAGGGGACCGUCCCCUCGGUAAUGGCGAAUGGGACCCA [C3A U46A]: the self-cleavage stood at 0.148.

GGACGGCAUGGUCCCAGCCUCCUCGCUGGCGCCGGCUGGGCAACAUUCCGAGGGGACCGUCCCCCCGGUAAUGGCGAAUGGGACCCA [C3A U65C]: the self-cleavage came out at 0.602.

Take GGACGGCAUGGUCCCAGCCUCCUCGCUGGCGCCGGCUGGGCAACAUUCCGAGGGGACCGUCCCCACGGUAAUGGCGAAUGGGACCCA [C3A U65A]: the self-cleavage worked out at 0.641.

Turning to GGGCGGCAUGGUCCCAGCCUCCUCGCUGGCGCCGGCUGGGCAACAUUCCGAGGGGACCGUCCCCUCGGUAAUGGCGAGUGGGACCCA [C3G A78G], the self-cleavage was determined as 0.151.

Turning to GGACGGCAUGGUCCCAGCCUCCUCGCUGGCGCCGGCUGGGCAACAUUCCGAGGGGACCGUCCCCUCGGUAAUGGCGAAUAGGACCCA [C3A G80A], the self-cleavage amounted to 0.175.

For the variant GGACGGCAUGGUCCCAGCCUCCUCGCUGGCGCCGGCUGGGCAACAUUCCGAGGGGACCGUCCCCUCGGUAAUGACGAAUGGGACCCA [C3A G74A], the self-cleavage came out at 0.0326.

Regarding GGACGGCAUGGUCCCAGCCUCCUCGCUGGCGCCGGCUGGGCAACAUUCCGAGGGGACCGUCCCCUCGGUAAUGUCGAAUGGGACCCA [C3A G74U], the self-cleavage was 0.156.

Regarding GGACGGCAUGGUCCCAGCCUCCUCGCUGGCGCCGGCUGGGCAACAUUCCGAGGGGACCGUCCCCUCGGUAAUGGCGAACGGGACCCA [C3A U79C], the self-cleavage stood at 0.106.

With GGACGGCAUGGUCCCAGCCUCCUCGCUGGCGCCGGCUGGGCAACAUUCCGAGGGGACCGUCCCCUCGGUAAUGGCGAAGGGGACCCA [C3A U79G], the self-cleavage was 0.175.

As to GGACGGCAUGGUCCCAGCCUCCUCGCUGGCGCCGGCUGGGCAACAUUCCGAGGGGACCGUCCCCUCGGUAAUGGCGAAAGGGACCCA [C3A U79A], the self-cleavage turned out to be 0.175.

As for GGACGGCAUGGUCCCAGCCCCCUCGCUGGCGCCGGCUGGGCAACAUUCCGAGGGGACCGUCCCCUCGGUAAUGGCGAAUGGGACCCA [C3A U20C], the self-cleavage was determined as 0.108.

With GGACGGCACGGUCCCAGCCUCCUCGCUGGCGCCGGCUGGGCAACAUUCCGAGGGGACCGUCCCCUCGGUAAUGGCGAAUGGGACCCA [C3A U9C], the self-cleavage stood at 0.381.

In the case of GGGCGGCAUGGUCCCAGCCUCCUCGCUGGCGCCGGCUGGGCAACAUUCCGAGGGGACCGUCCCCUCGGUAAUGGCGAAUGGGACCCU [C3G A87U], the self-cleavage worked out at 0.875.

Regarding GGACGGCAUGGGCCCAGCCUCCUCGCUGGCGCCGGCUGGGCAACAUUCCGAGGGGACCGUCCCCUCGGUAAUGGCGAAUGGGACCCA [C3A U12G], the self-cleavage amounted to 0.241.

Consider GGACGGCAUGGACCCAGCCUCCUCGCUGGCGCCGGCUGGGCAACAUUCCGAGGGGACCGUCCCCUCGGUAAUGGCGAAUGGGACCCA [C3A U12A], for which the self-cleavage is 0.0848.

On to GGGCGGCCUGGUCCCAGCCUCCUCGCUGGCGCCGGCUGGGCAACAUUCCGAGGGGACCGUCCCCUCGGUAAUGGCGAAUGGGACCCA [C3G A8C], for which the self-cleavage amounted to 0.293.

For the variant GGGCGGCAUGGUCCCAGCCUCCUCGCUGGCGCCGGCUGGGCAACAUUCCGAGGGGACCGUCCCCUCGGUAAUGGCGCAUGGGACCCA [C3G A77C], the self-cleavage amounted to 0.233.

With GGACGGCAUGGUCCCAGCCUCCUCGCUGGCGCCGGCUGGGCAACAUUCCGAGGGGACCGUCCCCUCGUUAAUGGCGAAUGGGACCCA [C3A G68U], the self-cleavage is 0.465.

As to GGACGGCAUGGUCCCAGCCUCCUCGCUGGCGCCGGCUGGGCAACAUUCCGAGGGGACCGGCCCCUCGGUAAUGGCGAAUGGGACCCA [C3A U60G], the self-cleavage turned out to be 0.471.

GGGCGGCAUGGUCCCAGCCUCCUCGCUGGCGCCGGCUGGGCAACAUUCCGAGGGGUCCGUCCCCUCGGUAAUGGCGAAUGGGACCCA [C3G A56U]: the self-cleavage amounted to 0.769.

With GGGCGGCAUGGUCACAGCCUCCUCGCUGGCGCCGGCUGGGCAACAUUCCGAGGGGACCGUCCCCUCGGUAAUGGCGAAUGGGACCCA [C3G C14A], the self-cleavage was 0.383.

With GGACGGCAUGGUCCCAGCCUCCUCGCUGGCGCCGGCUGGGCAACAUUCCGAGGGGACCGUCCCCUCGGCAAUGGCGAAUGGGACCCA [C3A U69C], the self-cleavage was found to be 0.665.

As to GGACGGCAUGGUCCCAGCCUCCUCGCUGGCGCCGGCUGGGCAACAUCCCGAGGGGACCGUCCCCUCGGUAAUGGCGAAUGGGACCCA [C3A U47C], the self-cleavage amounted to 0.422.

Consider GGGCGGCAUGGUCCCGGCCUCCUCGCUGGCGCCGGCUGGGCAACAUUCCGAGGGGACCGUCCCCUCGGUAAUGGCGAAUGGGACCCA [C3G A16G], for which the self-cleavage turned out to be 0.408.

(Values after the RNAGym collection of RNA variant scans (doi:10.7554/elife.80360).)
